Assay results as given in US20120263675A1 (REGENTS OF THE UNIVERSITY OF MICHIGAN, published 2012).
Square brackets hold non-standard residues; d marks the D form. Ends that are not written are not given here. * marks the point of attachment. 5FAM = O=C1OC2(c3ccc(O)cc3Oc3cc(O)ccc32)c2ccc(C(=O)*)cc21; Abu = CC[C@H](N)C(=O)O

What was measured:
[1] = biological target: T1, Human XIAP BIR3-only (residues 241-356) with N-terminal 6x His tag (human, UniProt P98170 241-356); experiment: fluorescence polarization, tracer binding to XIAP BIR3
T1 construct: range 241-356; Recombinant, produced in E. coli BL21(DE3); also called XIAP BIR3 protein; not shown: N-terminal 6x His tag from pET28 vector
T1 sequence (P98170 241-356): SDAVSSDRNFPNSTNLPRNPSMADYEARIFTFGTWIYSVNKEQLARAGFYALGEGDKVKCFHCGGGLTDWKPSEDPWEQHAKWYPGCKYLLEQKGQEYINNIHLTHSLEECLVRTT
Description: The FP-based assay for XIAP BIR3 protein was described in detail previously (Nikolovska-Coleska et al., Anal. Biochem. 332:261-73 (2004)). Briefly, 5-carboxyfluorescein was coupled to the lysine side chain of a mutated Smac peptide with the sequence (AbuRPFK-Fam) and this fluorescently tagged peptide (named SM5F) was used as the fluorescent tracer in FP-based binding assay to XIAP BIR3.

[2] = biological target: T2, Human cIAP-1 BIR3-only (residues 253-363) (human, UniProt Q13490 253-363); experiment: fluorescence polarization, tracer binding to cIAP-1 BIR3
T2 construct: range 253-363; Cloned into pHis-TEV vector, produced and purified as for XIAP BIR3; also called cIAP-1 BIR3 protein; not shown: tag from pHis-TEV vector
T2 sequence (Q13490 253-363): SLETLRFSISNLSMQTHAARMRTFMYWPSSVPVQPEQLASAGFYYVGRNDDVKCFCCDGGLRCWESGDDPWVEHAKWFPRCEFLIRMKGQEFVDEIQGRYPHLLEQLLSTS

[3] = biological target: T3, Human cIAP2 BIR3-only (residues 238-349) (human, UniProt Q13489 238-349); experiment: fluorescence polarization, tracer binding to cIAP-2 BIR3
T3 construct: range 238-349; Cloned into pHis-TEV vector, produced and purified as for XIAP BIR3; also called cIAP-2 BIR3 protein; not shown: tag from pHis-TEV vector
T3 sequence (Q13489 238-349): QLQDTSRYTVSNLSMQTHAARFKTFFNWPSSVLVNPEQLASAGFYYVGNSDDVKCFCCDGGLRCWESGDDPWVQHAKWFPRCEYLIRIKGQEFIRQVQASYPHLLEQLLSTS

- Kd [1]: 17.9 nM
- Kd [2]: 4.1 nM
- Kd [3]: 6.6 nM
B1: SM5F, fluorescently tagged mutated Smac peptide (AbuRPFK-Fam) (peptide)
peptide: [Abu]RPFK(5FAM)
notes: Mutated Smac N-terminal peptide used as tracer in the FP assays; also called fluorescent tracer
